Legend:
[1] = system: Spleen lymphocytes from a naive DA rat (responsive cells) with mitomycin-C treated LEW rat spleen lymphocytes; assay: Mixed lymphocyte reaction (MLR) test, BrdU incorporation; assay type: cell-based
Experimental: Spleen lymphocytes from a naive DA rat (responsive cells) and spleen lymphocytes from a LEW rat treated with mitomycin-C (Kyowa Hakko Kogyo Co., Ltd.) were used. The responsive cells were adjusted to 5×10^5 cells/mL with 10% FCS—RPMI culture medium, and the stimulated cells were adjusted to 8×10^6 cells/mL with 10% FCS—RPMI culture medium. After plating the responsive cell suspension and the stimulated cell suspension in an amount of 100 μL to a 96 well round-bottom plate (Nunc Brand Products) respectively, the monoclonal antibody 16G9 mAb of Reference Example 1 (0.1, 2, 4, or 6 μg/mL/well) or the monoclonal antibody SSVmAb of Example 1 (4 μg/mL/well) was added at the start of mixed culture, and cultured for 3.5 days or longer under the conditions of 37° C., 5% CO2/95% air. In addition, an immunosuppressive agent tacrolimus (FK506: Fujisawa Pharmaceutical Co., Ltd., 1 nM/well) was added as a positive control. Further, 10 μL bromo deoxyuridine (BrdU) was added 15 hours before the end of culture. Then the proliferation potential of the cells treated with the immunosuppressive agent was measured using BrdU labeling & detection kit III (Roche Diagnostics K.K.) using the amount of BrdU incorporated into cellular DNA as an indicator. The proliferation potential was used as an indicator for a level of immunosuppression.

[2] = system: T cells from a Balb/c mouse (mitochondria ATP synthase knocked down or not); assay: MLR test with T cells with or without mitochondria ATP synthase knock-down by siRNA; assay type: cell-based
Experimental: First, T cells from a Balb/c mouse having mitochondria ATP synthase knocked down were obtained using Accell siRNA kit from Thermo Fisher Scientific Inc.
Next, according to the method in Test Example 2, MLR tests were performed using Example 1 (SSV mAb) as a test substance using the T cells obtained.
In the test, Isotype IgG1 (eBioscience) was used as a control reagent. In addition, a similar test was performed using T cells from a mouse not having the ATP synthase knocked down as a control test.

CD3 positive T cells = assay: Reactivity of the monoclonal antibody with T cells by flow cytometry (FACS); assay type: cell-based, C57BL/6 mouse; conditions: unstimulated T cells, 10 μl of 100 μg/ml primary antibody, student t-test, FIG. 5
Experimental: Using the following approach, spleen was removed from a C57BL/6 mouse (5 weeks old, female, CHARLES RIVER LABORATORIES JAPAN, INC.) to prepare whole splenic cells.
First, in a 5 ml culture dish (BD Bioscience FALCON 351007) into which 5 ml RPMI 1640 culture medium (Sigma-Aldrich, R-8758) was transferred, spleen was disentangled well with scissors for dissection and forceps to suspend the splenic cells, which were then transferred to a 15 ml centrifuge tube (BD Bioscience FALCON 352096). Then, the 5 ml dish was washed several times with phosphate-buffered saline (PBS, Invitrogen, 20012-027), and these were also added to the foregoing cell suspension and allowed to stand, and then the supernatant was collected in another 15 ml centrifuge tube. In addition, 5 ml RPMI 1640 culture medium was also added to the residual insoluble spleen tissue again and allowed to stand, and then only the supernatant was collected, which was combined with the above-mentioned cell suspension to perform centrifugation at 1,500 rpm for 5 min. To the collected cells, added was 2 ml lysis buffer (150 mM NH4Cl/15 mM NaHCO3/0.1 mM EDTA-Na2, pH 7.3) and hemolyzed by tapping, and then 10 ml PBS was added. After washed 3 times by centrifugation at 1,500 rpm for 5 min, whole splenic cells were obtained. […]
The reactivity of the above unstimulated with 16G9 mAb or SSV mAb was analyzed by flow cytometry (FACS). […]

[3] = system: histone H1, H2A, H2B, H3 or H4; assay: ELISA determination of the affinity for histone H1 and core histone; assay type: binding; conditions: 5 μg/mL antibody, FIGS. 2 and 3
Experimental: For an antigen, histone H1, which is an antigen of Reference Example 1 (16G9 mAb), and core histone H2A, H2B, H3 and H4, which are histone H1 antigen analogs, were selected.
The Affinities between histone H1 or core histone and SSVmAb were determined by ELISA.
A 96 well microplate was coated with histone H1, H2A, H2B, H3 or H4. Each histone used was dissolved in 100 mM sodium carbonate buffer (pH 9.3). The plate was washed with PBS-tween 20 (0.05%), and blocked with 3% skim milk and 1% BSA for 1 hour. To each well, 5 μg/mL SSVmAb was added, and incubated for 1 hour. Bound SSVmAb was detected using peroxidase (HRP) conjugated anti mouse IgG1Ab (SIGMA), and incubated for 1 hour. Bound SSVmAb was detected using the ABTS [2,2′-azino-bis(3-ethylbenzothiazoline-sulfonic acid)] substrate solution, and absorbance at 405 nm was measured using Multiskan Ascent (Thermo Fisher Scientific Inc., Waltham, Mass.).

B1: SSVmAb: IgG1 monoclonal antibody produced by Mouse-Mouse hybridoma SSV-C 93-3 (NITE BP-972), raised against … peptide-KLH conjugate (antibody, V domains shown)
VH: EIQLQQSGAELVKPGASVKISCKASGYSFTGYNMNWVKQSHGKSLEWIGNINPYYGSTSYNQKFKGKATLTVDKSSSTAYMQLNSLTSEDSAVYYCARSPYYSNYWRYFDYWGQGTTLTVSS
VL: QIVLSQSPAILSASPGEKVTMTCRASSSVSYMHWYQQKPGSSPKPWIYATSNLASGVPARFSGSGSGTSYSLTISRVEAEDAATYYCQQWSSNPWTFGGGTKLEIK
notes: IgG1 monoclonal antibody produced by Mouse-Mouse hybridoma SSV-C 93-3 (NITE BP-972), raised against … peptide-KLH conjugate
absorbance which indicates the amount of incorporated BrdU ([1]; 4 μg/mL/well, mean±S.E., cultured 3.5 days or longer, FIG. 4): 0.552±0.114
absorbance (incorporated BrdU) compared with reference antibody and tacrolimus ([1]; SSVmAb 4 μg/mL/well, 16G9 mAb 0.1, 2, 4 or 6 μg/mL/well, FK506 1 nM/well): lower than that of Reference Example 1 (16G9 mAb) and tacrolimus (FK506)
mean absorbance of Example 1 relative to that of Reference Example 1 ([1]; same amount added (4 μg/mL/well)): about 41%
cell growth inhibition compared with Isotype IgG1 ([2]; ATP synthase knocked down, FIG. 6B): no significant difference
cell growth inhibition compared with Isotype IgG1 ([2]; ATP synthase not knocked down, FIG. 6A): significantly inhibited cell growth
reactivity with CD3 positive T cells (CD3 positive T cells): comparative reactivity
affinity for histone H2A, H2B, H3 or H4 compared with affinity for histone H1 (absorbance at 405 nm) [3]: higher than the affinity for histone H1

— patent US9701739B2, “Monoclonal antibody having immunosuppressive activity or antigen binding fragment thereof” (Josai University Corporation, priority 2010, dated 2017)
